US20100280227A1 (Genentech, published 2010)
Numbering of substitutions follows the chain as printed. Several values for one entry are separate records, joined by “and”; a condition that tells them apart may be missing. Identical values can stand only once. Like-named read-outs stand apart in the source and are kept apart here. One block for each binder: values may come before it.

How the values were obtained:
[1] = target: T1, human BR3 extracellular domain (human, UniProt Q96RJ3 1-61); experiment: BIAcore, Fab over immobilised target
T1 construct: biotinylated where used as tracer; also called hBR3-ECD; BR3-ECD
Procedure: (§1) Each sample was analysed with 2-minute association and 20-minute dissociation. After each injection the chip was regenerated using 10 mM Glycine pH 1.5. Binding response was corrected by subtracting the RU from a blank flow cell. A 1:1 Languir model of simultaneous fitting of kₒₙ and koff was used for kinetics analysis.

[2] = target: T2, variant human BR3-Fc fusion; experiment: BIAcore, Fab over immobilised target
T2 construct: produced in CHO cells; also called vBR3-Fc; vhBR3-Fc
Procedure: as §1

[3] = target: T1, human BR3 extracellular domain; experiment: SPR, BR3 ECD on chip;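 note: Anti-BR3 antibodies passed over the chip at high flow in PBS with 0.05% polysorbate 20, on and off rates fitted together globally to a 1:1 binding model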
Procedure: After coupling, unoccupied sites on the chip were blocked by injecting 20 μl of 1M ethanolamine, pH 8.5. The running buffer was PBS containing 0.05% polysorbate 20. […] The binding surface was regenerated by injecting 20-30 μl of 10 mM glycine.HCl (pH 1.5). […] Data were analyzed using a 1:1 binding model using global fitting. The association and dissociation rate constants were fitted simultaneously (BIAevaluation software).
A high flow rate was used in order to minimize mass transport effects.

[4] = target: T2, variant human BR3-Fc fusion; experiment: SPR, vBR3-Fc on chip;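 note: Anti-BR3 antibodies passed over chip-bound BR3-Fc in PBS with 0.05% polysorbate 20, on and off rates fitted together globally to a 1:1 binding model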
[5] = target: T1, human BR3 extracellular domain; experiment: SPR with Fab
Procedure: as §1

[6] = target: T1, human BR3 extracellular domain; experiment: phage competition ELISA
[7] = target: T3, mouse BR3 extracellular domain (mouse, UniProt Q9D8D0 1-64); experiment: phage competition ELISA
T3 construct: also called mBR3-ECD; mBR-ECD
T3 sequence: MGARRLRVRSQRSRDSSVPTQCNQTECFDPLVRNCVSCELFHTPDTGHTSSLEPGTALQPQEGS

[8] = target: T3, mouse BR3 extracellular domain; experiment: SPR BIAcore-2000, mBR3-ECD on chip, Fab injected
Source text: (§2) Biacore measurement Surface plasmon resonance assays on a BIAcore™-2000 were used to determine the affinity of anti-BR3 Fabs. […] For kinetics analysis, 1:1 Languir model of simultaneous fitting of kₒₙ and koff was used.

[9] = target: T1, human BR3 extracellular domain; experiment: SPR BIAcore-2000, ECD on chip, Fab injected
Source text: as §2

[10] = target: T3, mouse BR3 extracellular domain; experiment: SPR BIAcore-2000, ECD on chip, Fab injected
Source text: as §2

MiniBR3 peptide = target: T4, MiniBR3 peptide (human, C-terminal amide; disulfide between cysteines 24 and 35 and a second disulfide (BR3 numbering)); experiment: phage competition ELISA
T4 construct: synthetic
T4 sequence (peptide, as listed by the source): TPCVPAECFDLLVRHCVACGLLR

[11] = target: T1, human BR3 extracellular domain; experiment: single spot phage competition ELISA; OD with competitor / OD without competitor; criterion met by the picked clones
[12] = target: T3, mouse BR3 extracellular domain; experiment: as above
[13] = target: T1, human BR3 extracellular domain; experiment: SPR BIAcore-2000, hBR3-ECD on chip, Fab injected
Source text: as §2

mouse BR3-Fc [14] = target: T5, mouse BR3-Fc (mouse); experiment: BAFF blocking ELISA: F(ab)'2 phage added to coated mBR3-Fc after mBAFF-Flag
T5 construct: (BR3 ECD fused to a murine Fc); also called mBR3-Fc; murine BR3-Fc
T5 chain: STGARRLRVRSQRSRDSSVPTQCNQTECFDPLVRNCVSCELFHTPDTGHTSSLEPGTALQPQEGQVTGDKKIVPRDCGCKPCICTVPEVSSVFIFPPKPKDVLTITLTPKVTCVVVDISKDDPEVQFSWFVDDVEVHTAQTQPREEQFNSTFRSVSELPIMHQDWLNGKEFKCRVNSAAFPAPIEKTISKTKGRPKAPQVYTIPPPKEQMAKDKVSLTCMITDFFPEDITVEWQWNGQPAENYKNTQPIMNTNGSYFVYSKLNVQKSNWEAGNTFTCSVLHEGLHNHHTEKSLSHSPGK
Procedure: The wells were blocked by adding 65 ul 1% BSA for 30 minutes followed by 40 ul 1% Tween20 for another 30 minutes. Next, the wells were washed five times with PBS—0.05% Tween20. […] The wells were washed five times with PBS—0.05% Tween20.
Binding was quantified by adding 75 ul/well of horse radish peroxidase (HRP)-conjugated anti-M13 antibody in PBS plus 0.5% BSA and 0.05% Tween20 at room temperature for 30 minutes (Sidhu et al., supra). The wells were washed with PBS—0.05% Tween20 at least five times.

[15] = target: T1, human BR3 extracellular domain; experiment: F(ab)'2 phage solution binding competition ELISA
Procedure: (§3) Third, a competition ELISA was performed. […] The wells were blocked by adding 65 ul 1% BSA for 30 minutes followed by 40 ul 1% Tween20 for another 30 minutes. The wells were washed with PBS—0.05% Tween20 5 times. […] The wells of the second plate were washed with PBS—0.5% Tween20 at least three times. 75 ul of HRP-conjugated anti-M13 antibody (1/5000 dilution with ELISA buffer) per well was added and incubated at room temperature for 30 minutes. The wells were washed again with PBS—0.05% Tween20 at least five times.

[16] = target: T3, mouse BR3 extracellular domain; experiment: F(ab)'2 phage solution binding competition ELISA
Procedure: as §3

mouse BR3-Fc [17] = target: T5, mouse BR3-Fc; experiment: F(ab)'2 phage solution binding competition ELISA
Procedure: as §3

B2: Hu9.1-70 Fab (Fab, V domains shown)
VH: EVQLVESGGGLVQPGGSLRLSCAASDSPRSGYYISWVRQAPGKGLEWVGFIRDKANGYTTEYNPSVKGRFTISADTSKNTAYLQMNSLRAEDTAVYYCAQVRRALDYWGQGTLVTVSS
VL: DIQMTQSPSSLSASVGDRVTITCKSSQSLLYSSNQNNYLAWYQQKPGKAPKLLIYWASIRDSGVPSRFSGSGSGTDFTLTISSLQPEDFATYYCQQYYTYPYTFGQGTKVEIKR
notes: Fab
Kd [1]: 0.15 nM
Kd [2]: 0.78 nM
Kd [3]: 0.13 nM and 0.17 nM
koff [3]: 0.000137 s⁻¹ and 0.000163 s⁻¹
kon [3]: 1.08e+06 M⁻¹ s⁻¹ and 950000 M⁻¹ s⁻¹
Kd ([4]; 220 RU BR3-Fc immobilized): 0.95 nM
koff ([4]; 220 RU BR3-Fc immobilized): 0.00068 s⁻¹
kon ([4]; 220 RU BR3-Fc immobilized): 720000 M⁻¹ s⁻¹
Kd ([4]; 380 RU BR3-Fc immobilized): 0.61 nM
koff ([4]; 380 RU BR3-Fc immobilized): 0.000392 s⁻¹
kon ([4]; 380 RU BR3-Fc immobilized): 640000 M⁻¹ s⁻¹
fold higher affinity than the chimeric 9.1 Fab [5]: ~2 fold

B4: V3-1 Fab (Fab, V domains shown)
VH: EVQLVESGGGLVQPGGSLRLSCAASGFTISSNSIHWVRQAPGKGLEWVAWITPSDGNTDYADSVKGRFTISADTSKNTAYLQMNSLRAEDTAVYYCARRVCYNRLGVCAGGMDYWGQGTLVTVSS
VL: DIQMTQSPSSLSASVGDRVTITCRASQDVSTAVAWYQQKPGKAPKLLIYSASFLYSGVPSRFSGSGSGTDFTLTISSLQPEDFATYYCQQSRITPPTFGQGTKVEIKR
notes: soluble Fab in SPR
IC50 [6]: 9.4 nM
IC50 [7]: 9.5 nM
Kd [8]: 2.5 nM
koff [8]: 0.000195 s⁻¹
kon [8]: 77100 M⁻¹ s⁻¹
Kd [9]: 7.9 nM
koff [9]: 0.000293 s⁻¹
kon [9]: 37300 M⁻¹ s⁻¹
Kd [10]: 2.5 nM
koff [10]: 0.000195 s⁻¹
kon [10]: 77100 M⁻¹ s⁻¹
IC50 (MiniBR3 peptide): 5.4 nM
OD450nm reduction (%) [11]: < 50%
OD450nm reduction (%) [12]: < 50%
Kd [13]: 7.87 nM
koff [13]: 0.000293 s⁻¹
kon [13]: 37300 M⁻¹ s⁻¹

B5: 89 (Fab, V domains shown)
VH: EVQLVESGGGLVQPGGSLRLSCAASGFTITGYGIHWVRQAPGKGLEWVAGITPANGYTDYADSVKGRFTISADTSKNTAYLQMNSLRAEDTAVYYCAKSFPFHYNFDYWGQGTLVTVSS
VL: B4 VL with R92Y, I93T
notes: also called V89; clone 89
Blocking to % (phage bound in the presence of BAFF) (mouse BR3-Fc [14]): 90%
IC50 [15]: 5000 nM
binding result [16]: no binding
IC50 (mouse BR3-Fc [17]): 37 nM

B6: 75 (Fab, V domains shown)
VH: EVQLVESGGGLVQPGGSLRLSCAASGFTINGSWIHWVRQAPGKGLEWVAWITPSNGSTDYADSVKGRFTISADTSKNTAYLQMNSLRAEDTAVYYCARLSRRPWLWGMDYWGQGTLVTVSS
VL: B4 VL with R92Y, I93T
notes: also called V75; clone 75
binding result [15]: binds
binding result [16]: no binding
IC50 (mouse BR3-Fc [17]): > 10000 nM

B7: 96 (Fab, V domains shown)
VH: EVQLVESGGGLVQPGGSLRLSCAASGFTINSSAIHWVRQAPGKGLEWVGYITPASGYTDYADSVKGRFTISADTSKNTAYLQMNSLRAEDTAVYYCAKGFHWYRGFFDYWGQGTLVTVSS
VL: B4 VL with R92Y, I93T
notes: also called V96; clone 96
Blocking to % (phage bound in the presence of BAFF) (mouse BR3-Fc [14]): 65%
binding result [15]: binds
binding result [16]: no binding
IC50 (mouse BR3-Fc [17]): 200 nM

B9: 24 (Fab, V domains shown)
VH: EVQLVESGGGLVQPGGSLRLSCAASGFTISGSSIHWVRQAPGKGLEWVGTIYPYGGNTYYADSVKGRFTISADTSKNTAYLQMNSLRAEDTAVYYCARRAFVMSGMDYWGQGTLVTVSS
VL: B4 VL with R92Y, I93T
notes: also called V24; clone 24
Blocking to % (phage bound in the presence of BAFF) (mouse BR3-Fc [14]): 90%
binding result [15]: binds
binding result [16]: no binding
IC50 (mouse BR3-Fc [17]): 133 nM

B10: V3-11 Fab (Fab, V domains shown)
VH: B4 VH with R104N, G111A
VL: B4 VL with S91T, R92S, I93T, T94S
notes: soluble Fab in SPR
Kd [9]: 60.1 nM
koff [9]: 0.00113 s⁻¹
kon [9]: 21800 M⁻¹ s⁻¹
Kd [10]: 20.4 nM
koff [10]: 0.000888 s⁻¹
kon [10]: 43600 M⁻¹ s⁻¹
IC50 (MiniBR3 peptide): 11 nM
OD450nm reduction (%) [11]: < 50%
OD450nm reduction (%) [12]: < 50%

The next lines start with the values.

Kd [1]: 1.5 nM
Kd [2]: 5.4 nM
Kd [3]: 0.46 nM and 0.652 nM
koff [3]: 0.000808 s⁻¹ and 0.000867 s⁻¹
kon [3]: 1.76e+06 M⁻¹ s⁻¹ and 1.33e+06 M⁻¹ s⁻¹
Kd [4]: 1.38 nM and 1.62 nM
koff [4]: 0.000902 s⁻¹ and 0.000808 s⁻¹
kon [4]: 660000 M⁻¹ s⁻¹ and 500000 M⁻¹ s⁻¹
fold improved affinity relative to the chimeric 11G9 Fab [5]: > 10 fold
B1: Hu11G9-46 Fab (Fab, V domains shown)
VH: EVQLVESGGGLVQPGGSLRLSCAASGDSITSGYWNWVRQAPGKGLEWVGYISYSGSTYYNPSLKSRFTISRDTSKNTFYLQMNSLRAEDTAVYYCAGLNDLYLYFDVWGQGTLVTVSS
VL: DIQMTQSPSSLSASVGDRVTITCRSSQSLVHSNGNTYLHWYQQKPGKAPKLLIYKVSNRFSGVPSRFSGSGSGTDFTLTISSLQPEDFATYYCSQSTHVPPFTFGQGTKVEIKR
notes: Fab

Kd [3]: 0.14 nM
koff [3]: 0.000294 s⁻¹
kon [3]: 2.02e+06 M⁻¹ s⁻¹
Kd [4]: 6.4 nM
koff [4]: 0.00186 s⁻¹
kon [4]: 290000 M⁻¹ s⁻¹
fold higher affinity than the chimeric 9.1 Fab [5]: ~2 fold
B3: Hu9.1-RF Fab (Fab, V domains shown)
VH: B2 VH with D26G, S27F, P28T, R29V, S30T, G31A, I34M, A74R, A81F
VL: B2 VL with I59T, D61E

Kd [9]: 1200 nM
koff [9]: 0.0028 s⁻¹
kon [9]: 2300 M⁻¹ s⁻¹
Kd [10]: 40 nM
IC50 (MiniBR3 peptide): 473 nM
OD450nm reduction (%) [11]: < 50%
OD450nm reduction (%) [12]: < 50%
B8: V3-13 Fab (Fab, V domains shown)
VH: B4 VH with S31R, N32R, N103S, R104S, L105V, G106R, V107G, G111A
VL: B4 VL with S50G, F53N, R92H, I93A, T94S
notes: soluble Fab in SPR

Kd [9]: 72 nM
koff [9]: 0.00091 s⁻¹
kon [9]: 13000 M⁻¹ s⁻¹
Kd [10]: 36 nM
koff [10]: 0.0013 s⁻¹
kon [10]: 36000 M⁻¹ s⁻¹
IC50 (MiniBR3 peptide): 35 nM
OD450nm reduction (%) [11]: < 50%
OD450nm reduction (%) [12]: < 50%
B11: V3-12 Fab (Fab, V domains shown)
VH: B4 VH with N103D, L105A, G106R, G111A
VL: B4 VL with R92Y, I93S
notes: soluble Fab in SPR
